The record followed here is US20050265970A1 (UNIVERSITY OF CHICAGO, published 2005).

Experiment [1] addresses T1, HA-GCKR (full-length human, in 293 cells) (human, UniProt Q9Y4K4 1-846).
T1 construct: not shown: HA tag
Nature of the experiment: combined immunoprecipitation and Western blot, 293 cells. A general note: In western blotting, separated proteins are transferred to a membrane and probed.

The target in experiment [2] is T2, HA-GCK (full-length human, in 293 cells) (human, UniProt Q12851 1-820).
T2 construct: not shown: HA tag
T2 sequence (looked up): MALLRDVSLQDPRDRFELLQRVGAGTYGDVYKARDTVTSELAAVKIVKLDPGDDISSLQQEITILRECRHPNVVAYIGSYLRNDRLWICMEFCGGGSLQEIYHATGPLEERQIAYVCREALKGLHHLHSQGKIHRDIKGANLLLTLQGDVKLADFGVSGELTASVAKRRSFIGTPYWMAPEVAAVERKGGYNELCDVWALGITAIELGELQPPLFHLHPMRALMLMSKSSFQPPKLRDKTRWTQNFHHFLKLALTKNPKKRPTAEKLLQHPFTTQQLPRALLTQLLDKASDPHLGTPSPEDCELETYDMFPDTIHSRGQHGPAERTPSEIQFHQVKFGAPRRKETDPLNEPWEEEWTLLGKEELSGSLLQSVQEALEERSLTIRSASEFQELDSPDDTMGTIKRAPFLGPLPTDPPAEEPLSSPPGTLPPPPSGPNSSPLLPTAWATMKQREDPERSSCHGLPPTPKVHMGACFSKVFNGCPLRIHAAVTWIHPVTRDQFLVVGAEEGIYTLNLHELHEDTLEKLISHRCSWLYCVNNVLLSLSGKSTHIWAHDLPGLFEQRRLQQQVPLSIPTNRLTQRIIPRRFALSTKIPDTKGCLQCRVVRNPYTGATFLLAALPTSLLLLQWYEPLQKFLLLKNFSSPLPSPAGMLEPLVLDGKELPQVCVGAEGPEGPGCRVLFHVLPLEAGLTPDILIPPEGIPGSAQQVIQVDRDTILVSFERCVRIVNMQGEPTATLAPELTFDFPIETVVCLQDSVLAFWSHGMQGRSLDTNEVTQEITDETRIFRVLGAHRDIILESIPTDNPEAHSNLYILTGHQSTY
Described as above.

Experiment [3] deals with T3, HA-MEKK4 (full-length murine, in 293 cells) (murine, UniProt O08648 1-1597, limits assumed).
T3 construct: also called MEKK4/MTK1; not shown: HA tag
T3 sequence (O08648 whole entry): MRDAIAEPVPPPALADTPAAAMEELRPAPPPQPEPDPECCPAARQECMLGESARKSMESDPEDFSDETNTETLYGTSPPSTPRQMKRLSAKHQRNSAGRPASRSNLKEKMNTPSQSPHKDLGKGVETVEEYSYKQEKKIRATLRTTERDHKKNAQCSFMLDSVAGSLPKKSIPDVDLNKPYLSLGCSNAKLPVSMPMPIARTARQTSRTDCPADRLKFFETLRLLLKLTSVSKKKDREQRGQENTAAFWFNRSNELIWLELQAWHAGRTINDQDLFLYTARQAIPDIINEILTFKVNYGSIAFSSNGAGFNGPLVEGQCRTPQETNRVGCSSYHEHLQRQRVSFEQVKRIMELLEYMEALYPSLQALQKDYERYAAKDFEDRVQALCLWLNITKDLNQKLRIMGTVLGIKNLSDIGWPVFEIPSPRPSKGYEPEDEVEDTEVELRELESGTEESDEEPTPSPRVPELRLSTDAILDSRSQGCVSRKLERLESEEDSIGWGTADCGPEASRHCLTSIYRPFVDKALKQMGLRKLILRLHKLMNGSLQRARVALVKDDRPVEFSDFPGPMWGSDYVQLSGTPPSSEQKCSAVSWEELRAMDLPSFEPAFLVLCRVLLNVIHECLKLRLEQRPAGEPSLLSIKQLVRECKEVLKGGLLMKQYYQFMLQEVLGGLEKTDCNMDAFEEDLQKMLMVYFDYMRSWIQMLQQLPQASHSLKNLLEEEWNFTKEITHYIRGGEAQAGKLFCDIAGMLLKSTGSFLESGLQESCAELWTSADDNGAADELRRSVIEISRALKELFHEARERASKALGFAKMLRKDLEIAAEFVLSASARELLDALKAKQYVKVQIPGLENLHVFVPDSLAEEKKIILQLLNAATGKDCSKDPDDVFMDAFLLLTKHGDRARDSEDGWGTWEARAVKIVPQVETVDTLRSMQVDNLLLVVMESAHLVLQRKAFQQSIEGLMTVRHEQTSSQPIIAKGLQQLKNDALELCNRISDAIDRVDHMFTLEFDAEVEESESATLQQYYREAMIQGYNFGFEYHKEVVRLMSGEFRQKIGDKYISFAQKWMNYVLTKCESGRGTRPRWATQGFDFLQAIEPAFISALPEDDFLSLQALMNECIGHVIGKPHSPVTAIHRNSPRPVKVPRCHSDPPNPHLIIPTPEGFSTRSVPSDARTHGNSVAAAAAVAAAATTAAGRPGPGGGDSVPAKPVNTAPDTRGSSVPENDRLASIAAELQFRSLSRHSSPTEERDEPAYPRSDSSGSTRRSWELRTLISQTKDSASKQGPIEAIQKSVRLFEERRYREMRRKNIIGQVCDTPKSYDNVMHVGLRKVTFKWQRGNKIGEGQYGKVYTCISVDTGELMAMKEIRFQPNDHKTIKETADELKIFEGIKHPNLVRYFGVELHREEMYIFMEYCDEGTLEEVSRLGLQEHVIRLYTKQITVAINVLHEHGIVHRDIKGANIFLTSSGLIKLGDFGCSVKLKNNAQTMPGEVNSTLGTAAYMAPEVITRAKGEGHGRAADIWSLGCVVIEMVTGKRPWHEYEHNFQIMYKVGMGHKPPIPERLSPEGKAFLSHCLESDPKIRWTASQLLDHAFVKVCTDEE
The experiment can be described thus: co-IP from 293 cells.

The target of experiment [4] is T4, HA-ASK1 (full-length human, in 293 cells) (human, UniProt Q99683 1-1374).
T4 construct: not shown: HA tag
T4 sequence (looked up): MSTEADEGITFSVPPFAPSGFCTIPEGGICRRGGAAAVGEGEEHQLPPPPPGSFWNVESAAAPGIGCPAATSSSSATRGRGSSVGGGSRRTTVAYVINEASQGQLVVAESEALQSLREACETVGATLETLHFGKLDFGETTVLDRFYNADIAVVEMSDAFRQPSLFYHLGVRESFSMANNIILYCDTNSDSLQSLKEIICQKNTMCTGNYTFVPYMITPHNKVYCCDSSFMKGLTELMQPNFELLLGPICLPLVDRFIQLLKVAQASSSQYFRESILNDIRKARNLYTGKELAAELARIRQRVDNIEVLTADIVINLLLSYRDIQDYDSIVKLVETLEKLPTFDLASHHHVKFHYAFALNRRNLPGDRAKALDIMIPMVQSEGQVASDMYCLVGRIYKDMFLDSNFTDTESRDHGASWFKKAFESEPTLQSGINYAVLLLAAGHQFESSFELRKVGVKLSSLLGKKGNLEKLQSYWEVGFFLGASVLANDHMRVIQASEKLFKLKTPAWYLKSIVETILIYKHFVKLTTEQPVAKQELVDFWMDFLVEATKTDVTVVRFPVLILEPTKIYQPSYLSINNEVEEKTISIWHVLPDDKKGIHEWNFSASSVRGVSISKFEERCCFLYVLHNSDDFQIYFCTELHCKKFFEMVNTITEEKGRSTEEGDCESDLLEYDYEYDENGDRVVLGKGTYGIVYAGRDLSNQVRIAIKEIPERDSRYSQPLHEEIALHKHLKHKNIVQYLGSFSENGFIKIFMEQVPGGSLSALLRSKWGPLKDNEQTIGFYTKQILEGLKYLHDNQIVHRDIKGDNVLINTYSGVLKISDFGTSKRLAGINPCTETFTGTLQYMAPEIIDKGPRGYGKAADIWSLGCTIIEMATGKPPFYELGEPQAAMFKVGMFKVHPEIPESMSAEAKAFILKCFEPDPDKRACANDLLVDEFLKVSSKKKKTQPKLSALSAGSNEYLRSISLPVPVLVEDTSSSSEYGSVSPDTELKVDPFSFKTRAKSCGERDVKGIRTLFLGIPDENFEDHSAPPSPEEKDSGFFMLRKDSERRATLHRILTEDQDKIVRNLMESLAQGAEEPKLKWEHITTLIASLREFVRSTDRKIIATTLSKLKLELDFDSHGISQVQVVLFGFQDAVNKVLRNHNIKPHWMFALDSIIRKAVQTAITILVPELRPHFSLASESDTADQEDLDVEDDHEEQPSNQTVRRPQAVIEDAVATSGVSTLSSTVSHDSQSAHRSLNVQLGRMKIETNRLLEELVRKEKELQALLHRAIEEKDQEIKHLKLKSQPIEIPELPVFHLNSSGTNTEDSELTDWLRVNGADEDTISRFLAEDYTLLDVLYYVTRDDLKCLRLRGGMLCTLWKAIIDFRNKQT
Nature of the experiment: co-IP from 293 cells, anti-FLAG beads, anti-HA Western blot.

The target in experiment [5] is T5, HA-MEKK3 (full-length human, in 293 cells) (human, UniProt Q99759 1-626, limits assumed).
T5 construct: not shown: HA tag
T5 sequence (looked up): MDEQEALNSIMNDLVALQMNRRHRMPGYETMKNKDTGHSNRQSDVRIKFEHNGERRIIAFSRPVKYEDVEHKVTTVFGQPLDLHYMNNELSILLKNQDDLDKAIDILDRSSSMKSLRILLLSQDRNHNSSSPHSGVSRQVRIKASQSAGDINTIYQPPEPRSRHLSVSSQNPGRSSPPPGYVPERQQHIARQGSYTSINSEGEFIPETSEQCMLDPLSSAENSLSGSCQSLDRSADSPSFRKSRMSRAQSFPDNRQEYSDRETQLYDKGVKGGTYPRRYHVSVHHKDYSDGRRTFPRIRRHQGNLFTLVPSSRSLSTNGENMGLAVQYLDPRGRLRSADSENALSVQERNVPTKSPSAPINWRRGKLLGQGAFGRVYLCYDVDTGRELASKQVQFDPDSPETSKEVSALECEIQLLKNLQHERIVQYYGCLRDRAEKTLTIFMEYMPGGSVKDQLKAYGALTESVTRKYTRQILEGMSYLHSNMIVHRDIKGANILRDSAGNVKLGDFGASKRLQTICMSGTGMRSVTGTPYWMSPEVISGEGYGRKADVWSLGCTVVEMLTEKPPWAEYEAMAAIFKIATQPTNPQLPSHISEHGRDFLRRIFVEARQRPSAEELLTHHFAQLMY
Described as above.

The target of experiment [6] is T6, HA-MEKK1 (full-length human, in 293 cells) (human, UniProt Q13233 1-1512, limits assumed).
T6 construct: not shown: HA tag
T6 sequence (Q13233 whole entry): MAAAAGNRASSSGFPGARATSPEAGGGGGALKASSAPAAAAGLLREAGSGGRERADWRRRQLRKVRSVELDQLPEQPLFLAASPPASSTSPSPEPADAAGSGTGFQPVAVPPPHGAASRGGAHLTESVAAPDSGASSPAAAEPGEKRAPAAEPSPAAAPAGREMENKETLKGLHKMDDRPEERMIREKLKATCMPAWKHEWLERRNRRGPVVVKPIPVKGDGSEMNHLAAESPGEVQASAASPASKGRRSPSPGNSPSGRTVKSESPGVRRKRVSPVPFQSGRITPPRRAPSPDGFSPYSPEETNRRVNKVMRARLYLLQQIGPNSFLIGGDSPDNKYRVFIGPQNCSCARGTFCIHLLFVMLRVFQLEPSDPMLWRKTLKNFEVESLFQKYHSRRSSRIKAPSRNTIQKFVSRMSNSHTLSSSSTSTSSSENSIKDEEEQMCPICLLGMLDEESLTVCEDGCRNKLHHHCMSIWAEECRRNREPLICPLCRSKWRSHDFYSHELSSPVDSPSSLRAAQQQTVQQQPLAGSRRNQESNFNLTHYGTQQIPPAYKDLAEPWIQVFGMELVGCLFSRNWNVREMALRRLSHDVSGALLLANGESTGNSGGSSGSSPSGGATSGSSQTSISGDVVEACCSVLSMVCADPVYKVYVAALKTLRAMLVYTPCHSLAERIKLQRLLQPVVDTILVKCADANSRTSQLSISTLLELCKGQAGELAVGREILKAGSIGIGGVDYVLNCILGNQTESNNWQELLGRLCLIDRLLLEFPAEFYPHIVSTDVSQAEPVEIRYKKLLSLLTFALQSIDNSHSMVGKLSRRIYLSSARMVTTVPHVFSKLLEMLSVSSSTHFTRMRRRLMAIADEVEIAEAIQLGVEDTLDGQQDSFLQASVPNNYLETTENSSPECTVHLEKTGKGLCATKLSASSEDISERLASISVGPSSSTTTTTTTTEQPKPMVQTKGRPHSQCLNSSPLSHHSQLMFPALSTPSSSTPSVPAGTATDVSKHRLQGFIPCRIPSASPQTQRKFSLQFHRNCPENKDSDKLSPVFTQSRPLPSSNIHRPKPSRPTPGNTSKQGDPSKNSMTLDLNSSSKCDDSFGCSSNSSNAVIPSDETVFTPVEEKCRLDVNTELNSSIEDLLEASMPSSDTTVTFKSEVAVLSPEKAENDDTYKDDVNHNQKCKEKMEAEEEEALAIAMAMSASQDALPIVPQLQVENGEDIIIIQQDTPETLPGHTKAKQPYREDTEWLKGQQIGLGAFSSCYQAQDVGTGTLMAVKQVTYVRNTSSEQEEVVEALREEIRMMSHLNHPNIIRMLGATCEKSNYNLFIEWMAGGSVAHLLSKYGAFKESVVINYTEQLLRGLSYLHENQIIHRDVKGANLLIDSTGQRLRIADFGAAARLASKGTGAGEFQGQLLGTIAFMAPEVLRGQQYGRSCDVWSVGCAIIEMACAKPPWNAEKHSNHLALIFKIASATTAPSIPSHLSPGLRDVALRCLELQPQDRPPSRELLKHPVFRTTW
Described as above.

T1 sequence (Q9Y4K4 whole entry): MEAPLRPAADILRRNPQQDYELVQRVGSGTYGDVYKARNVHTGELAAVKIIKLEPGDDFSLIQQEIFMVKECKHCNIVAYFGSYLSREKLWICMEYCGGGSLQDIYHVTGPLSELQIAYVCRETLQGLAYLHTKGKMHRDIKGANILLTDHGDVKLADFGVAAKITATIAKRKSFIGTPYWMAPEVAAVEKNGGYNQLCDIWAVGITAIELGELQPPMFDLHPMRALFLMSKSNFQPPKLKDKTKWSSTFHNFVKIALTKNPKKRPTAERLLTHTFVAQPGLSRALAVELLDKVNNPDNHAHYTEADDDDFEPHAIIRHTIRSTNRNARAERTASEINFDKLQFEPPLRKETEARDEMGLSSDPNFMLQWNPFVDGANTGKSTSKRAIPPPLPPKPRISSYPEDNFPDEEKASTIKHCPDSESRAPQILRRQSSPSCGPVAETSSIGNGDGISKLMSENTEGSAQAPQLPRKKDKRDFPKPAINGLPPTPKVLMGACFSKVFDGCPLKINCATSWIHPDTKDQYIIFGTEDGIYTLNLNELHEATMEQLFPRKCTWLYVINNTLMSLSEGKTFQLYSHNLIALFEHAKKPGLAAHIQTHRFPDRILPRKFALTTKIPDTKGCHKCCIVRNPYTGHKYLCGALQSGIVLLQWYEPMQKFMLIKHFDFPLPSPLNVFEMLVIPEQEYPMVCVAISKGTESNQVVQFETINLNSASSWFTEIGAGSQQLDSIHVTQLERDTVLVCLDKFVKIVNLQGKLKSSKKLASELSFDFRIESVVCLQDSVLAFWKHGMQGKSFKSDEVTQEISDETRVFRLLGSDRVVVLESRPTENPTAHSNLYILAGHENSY

B1: FLAG-Gadd45β (full-length murine Gadd45β, pcDNA-FLAG-Gadd45β, expressed in 293 cells) (other, UniProt P22339 1-160, looked up)
chain: MTLEELVASDNAVQKMQAVTAAVEQLLVAAQRQDRLTVGVYEAAKLMNVDPDSVVLCLLAIDEEEEDDIALQIHFTLIQSFCCDNDIDIVRVSGMQRLAQLLGEPAETLGTTEARDLHCLLVTNCHTDSWKSQGLVEVASYCEESRGNNQWVPYISLEER
notes: range 1-160; Co-expressed with HA-tagged kinases in 293 cells for co-immunoprecipitation; not shown: FLAG tag
For the molecule B1, the binding result in experiment [1] was “no binding”; in experiment [2] it was “no binding”; in experiment [3], “binds”; in experiment [4], “binds”; in experiment [5], “no binding”; in experiment [6] it was “no binding”.
